Test results taken from PMC8113518, “JRAB/MICAL-L2 undergoes liquid–liquid phase separation to form tubular recycling endosomes” (Communications Biology, 2021).

Biological target: T1, His-GFP-JRAB/MICAL-L2 (mouse, UniProt Q3TN34 1-1009)
T1 construct: JRAB/MICAL-L2, mouse; cDNA encoding JRAB/MICAL-L2 subcloned into pcDNAHisMax-GFP; The plasmid encodes the His6-tag followed by GFP, then the protein's cDNA; source: HEK293, transfected, purified (cOmplete resin, Superdex 200)
Assay: recruitment to liposomes seen by confocal microscopy; purified His-GFP-JRAB/MICAL-L2 and His-mCherry-Rab8ADA (150 nM) mixed with PC:PS (7:3) liposomes in 20 mM HEPES-NaOH pH 7.5, 100 mM KCl, 1 mM DTT
Conditions: both partners purified

T1 sequence (Q3TN34 whole entry): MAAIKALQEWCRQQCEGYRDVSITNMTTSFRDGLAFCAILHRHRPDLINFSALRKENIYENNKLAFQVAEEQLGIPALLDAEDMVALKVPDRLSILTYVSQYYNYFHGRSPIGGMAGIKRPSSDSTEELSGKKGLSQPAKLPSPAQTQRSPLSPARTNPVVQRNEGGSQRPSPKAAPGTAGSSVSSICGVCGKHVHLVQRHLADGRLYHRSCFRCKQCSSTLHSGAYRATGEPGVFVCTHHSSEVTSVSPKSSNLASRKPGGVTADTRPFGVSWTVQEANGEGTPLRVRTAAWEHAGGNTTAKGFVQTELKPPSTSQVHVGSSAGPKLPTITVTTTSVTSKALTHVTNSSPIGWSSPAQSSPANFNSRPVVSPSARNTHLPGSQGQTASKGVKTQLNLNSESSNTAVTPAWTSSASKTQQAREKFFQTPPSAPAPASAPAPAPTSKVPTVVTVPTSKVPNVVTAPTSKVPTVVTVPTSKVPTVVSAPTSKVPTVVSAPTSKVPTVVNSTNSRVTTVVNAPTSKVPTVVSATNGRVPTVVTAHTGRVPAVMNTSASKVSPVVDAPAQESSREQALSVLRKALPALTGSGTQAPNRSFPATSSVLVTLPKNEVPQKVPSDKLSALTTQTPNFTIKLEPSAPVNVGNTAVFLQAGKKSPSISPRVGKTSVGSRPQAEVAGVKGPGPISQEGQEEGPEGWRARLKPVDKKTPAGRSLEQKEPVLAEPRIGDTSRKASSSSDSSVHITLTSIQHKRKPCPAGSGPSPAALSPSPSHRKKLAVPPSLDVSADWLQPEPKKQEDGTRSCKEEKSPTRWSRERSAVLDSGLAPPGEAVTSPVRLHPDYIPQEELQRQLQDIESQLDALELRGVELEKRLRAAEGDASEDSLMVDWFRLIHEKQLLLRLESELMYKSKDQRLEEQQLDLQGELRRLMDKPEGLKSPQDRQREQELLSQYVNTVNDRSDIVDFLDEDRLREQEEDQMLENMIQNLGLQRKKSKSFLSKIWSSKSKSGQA

binding result: binds
B1: His-mCherry-Rab8ADA (natural protein, mouse, UniProt P55258 1-207, looked up)
chain: MAKTYDYLFKLLLIGDSGVGKTCVLFRFSEDAFNSTFISTIGIDFKIRTIELDGKRIKLQIWDTAGLERFRTITTAYYRGAMGIMLVYDITNEKSFDNIRNWIRNIEEHASADVEKMILGNKCDVNDKRQVSKERGEKLALDYGIKFMETSAKANINVENAFFTLARDIKAKMDKKLEGNSPQGSSHGVKITVEQQKRTSFFRCSLL
notes: Rab8A, mouse, dominant-active mutant Q67L; cDNA subcloned into pcDNAHisMax-mCherry; The plasmid encodes the His6-tag followed by mCherry, then the protein's cDNA; Purified from the membrane (pellet) fraction; source: HEK293, transfected, purified from the CHAPS-extracted pellet fraction (Talon resin)
